Experimental data from the DeepSol protein solubility set.

assay: soluble on expression in E. coli; label from the status in PepcDB or PDB records

Row | Sequence | soluble on expression in E. coli
1 | MGSDKIHHHHHHMLCSVIQRQTREVSNTMSLDSYYLGFDLSTQQLKCLAINQDLKIVHSETVEFEKDLPHYHTKKGVYIHGDTIECPVAMWLEALDLVLSKYREAKFPLNKVMAVSGSCQQHGSVYWSSQAESLLEQLNKKPEKDLLHYVSSVAFARQTAPNWQDHSTAKQCQEFEECIGGPEKMAQLTGSRAHFRFTGPQILKIAQLEPEAYEKTKTISLVSNFLTSILVGHLVELEEADACGMNLYDIRERKFSDELLHLIDSSSKDKTIRQKLMRAPMKNLIAGTICKYFIEKYGFNTNCKVSPMTGDNLATICSLPLRKNDVLVSLGTSTTVLLVTDKYHPSPNYHLFIHPTLPNHYMGMICYCNGSLARERIRDELNKERENNYEKTNDWTLFNQAVLDDSESSENELGVYFPLGEIVPSVKAINKRVIFNPKTGMIEREVAKFKDKRHDAKNIVESQALSCRVRISPLLSDSNASSQQRLNEDTIVKFDYDESPLRDYLNKRPERTFFVGGASKNDAIVKKFAQVIGATKGNFRLETPNSCALGGCYKAMWSLLYDSNKIAVPFDKFLNDNFPWHVMESISDVDNENWDRYNSKIVPLSELEKTLI | not soluble
2 | MTEFFSQKQIDEIRECFNFYSTSGVLRTDSQLRCALRSLGYSPTASKTDIYFKKLNKKPIEFATFLDICKDEQNSPNPLTEIIKALSGLDRNKTRAMPSRELAAILSHVGEQMSPEEIKYLLSKVEVNGMVPHQALIEYISK | not soluble
3 | MKVAIIAANGGLFDAYKVINIGTAGAAADAEVGVFFTGEGLNLIHKEAHKQWPIPEGKEHFQQGFQKANVPSIAELLQMAQEMGVKLIACQMTMDVMGLDKDQFVDGIEVAGAATFLQFAKDADITLAF | not soluble
4 | MLTERQLLIFRAIIDHFTWTIQPVGSKNLLKEKSLPYSSATIRNEMGVLEEYGFIEKTHSSSGRVPSEKGYRFYVDYLLQPKKLDKSDRQMIRSFFSENYYEMEGLIQNSALMLSDLTNYTSILLGPEATKNHLSGFRFVPINNFQAMLILITDQGHVDNHLVTIPEGTTLSDIERMVNILNERLVGLSLDDLKVQIPMEVKELLGKHVRNYESFMHVFSDSFAQASQQKVYFGGKTNILNQPEFHDINKVREMLHLMEEEQDVYELFRDIPDGLQVKIGRENNNSLMEDCSIITATYNIAGERVGGIVLLGPTRMEYSRMMGLVDVMSRDLTDVLTKLYRDNQN | not soluble
5 | MSEMSAIYRVKQYILNLIKDGELTNGSKLPSNLSIARALNVKTDDVYDGIDELITEQVVTDNFEEGTSVKVKPPFYYPLNKIISIGTMIKEAGYEAGTEYLNLDEQPATILDAEHLGIETKEPITIIERLRTANHKPVVYCLDKIAKTYLTCTDYQQSSGSMLEAIKASTNHQIMHAEMDLEAISYEPHISEVLNASPHEGLMLLKVVHYDEKHQPILYSLNYIKSSLVKFTITKSE | not soluble
6 | MGSDKIHHHHHHMKSLGRHLVAEFYECDREVLDNVQLIEQEMKQAAYESGATIVTSTFHRFLPYGVSGVVVISESHLTIHTWPEYGYAAIDLFTCGEDVDPWKAFEHLKKALKAKRVHVVEHERGRYDEIGIPEDSPHKAAV | soluble
7 | TAELKICRVNRNSGSCLGGDEIFLLCDKVQKEDIEVYFTGPGWEARGSFSQADVHRQVAIVFRTPPYADPSLQAPVRVSMQLRRPSDRELSEPMEFQYLPDTDDRHRIEEKRKRTYETFKSIMKKSPFNGPTEPRP | soluble
8 | STYEYKRELREGARGKWINLRQHLNSGTRLEKELIKVDRQIDKKAAEIKEIEDLLFKIEQYKAENNIR | not soluble
9 | MGSDKIHHHHHHMTGIALSPIGALWGIVGAKTHGTVEMGAALTHRGCYMAMEEGPTFSFGARHSAEIWPISVDDDIAVVYSGFPFVVDEETRTPRYLSAEDIRTEFLRFGADFFRVLCGHYAIAVYCYTRHRLILVRDAFGVQSLSWASSNENFAFSTEYKALLSLPWVERNLDHDAARGFVDDGWAPAGRTFLRHISMVLPGSILIWQNGNLETIHLRQDLCKTRPPFRPISVRHVEMTVRETIGWQANDFSPRYGVMLSSGVDSAVIAATLRRIRRDSEIHTFTVGYGYDDPEIIGASATASVLGTQHHEIIVRPDALTALLTDTIVAVDNPGGYEEFPCLYALHQEARQFVDIIFSGNAADTLFAGMPYHRDLLSTDDAIYRRLCNDLTVRDERLAAQELLAGRHGLNFRMPYAERILIDLALEIPDFQKLSPENDKIIFREAARQILPDEITMRPKRIQHLLYDDSMCSWLAERIEWICSSSLLRTHSLGELEGAAILPPRNLELTEESFKAAWNVVALATWASIYLA | not soluble
10 | MGSDKIHHHHHHMRIAIIEDEPLAAEKLAGYIQRQWPEAKIIATLSSVDAVIEFFNQPQNLDLLFSDIELSDGQVFSALEQIDVPCPVIFTTSYNDYWMNAFQNQGIEYLLKPFSFKRFSQAVANYQALFEQRSKIETTSFKQRFIIKQQGASEMLNVAEIHCFRAANGTILAGDKQGQYHILSDNNLSQLEAQLDPKVFFRINRADIININSLIKFETYTKETLALYIKGYSEALVTSKTRTANFRKWLEA | not soluble
11 | MGSDKIHHHHHHMNFETVIGLEVHVELKTESKIFSASPNHFGAEPNANTSVIDLGYPGVLPVLNKAAVEFAMKAAMALNCEVATDTKFDRKNYFYPDNPKAYQISQFDKPIGENGWIEIEVDGTKKKIGITRLHLEEDAGKLTHSGNGYSLVDFNRQGTPLIEIVSEPDIRTPQEAYAYLEKLKSIIQYTGVSDCKMEEGSLRCDANISLRPVGQEEFGTKTELKNLNSFNFVRKGLEYEEKRQAQVLLSGGEILQETRRYDEAANKTVLMRVKEGSDDYRYFPEPDLVALHIDDEWKARIRSEIPELPDARKKRYVEELGLPAYDAMVLTLTKEMSDFFEETIAKGADPKLASNWLMGEVSGYLNAEQKELDEVALTPDGLAKMIQLIEKGTISSKIAKKVFKDLIEKGGDPEEIVKAKGLVQISDEGELRKYVVEVLDNNQQSIDDFKNGKDRAIGFLVGQIMKATKGKANPPMVNKLLLEEINKR | not soluble
12 | MAPRTYASVLTTPRGPAPLALYCPEAPECPKLEAISNLSFQQITQQAGTSNDQGFEFENTYVEHRINQEIESFVDTHHQEPLRKAAAQFRAVMKQEYPDSTCFITGSYPAGVDIFSSDIDFTVKVPTLEGANPFLKLMQLRKELSCYYTIFSKAYVQKGNIPVLQLMHAETKVSIDVTIDNDTSKRNTQLLAFYSQLDTRFPLLCKAMKAWAASCGVEGASRGRLNSFSLCLMLIHYLQTVQVLLNIQEIFPELNGDIVVEDDNYMKRDLKIEILEKGAFDFNQNTSSLAVLFIGFMKYYSEFNFKWNWISIKHGNVLKKKWSKTRVPKNGMPKDCRFIVVADPLLEIPRNCAGTVRQQNYMERIQLEFREEYERILKRKTIFNLYQCNWSRKLRKEGMERDLQIMILQDELRKLRIANLPTEEEVPWGTVVDFTSPRTFSPTNQHPKVFWCSEQTTENQRRDNLWPELLRTNPYAIFENLI | soluble
13 | MGSDKIHHHHHHMHHVKTGALSISRLEYGADVIIEPDHLDNFYLIQIPTQGYAEIEFGSQKFISYSQVASLISPQQSLRMCWHANSPQLILKVSKDDFTYHCRQHIADSENNLLIFDPKLDFSTQGGAYFLQLVRTLMDALACEQHPLHHPLAFKQFESNLFNALIYGQPNNALHKLDHYKEKTVSPYFVKRTEAYIKEHLHEPLNVEILAEHAGVSVRTLFTGFKNYLGTTPMSYLKELRFEQAHLELMHNENLSVTDVAFKWGFTHLGRFSQEYKRRYGELPSSTRRSGQSEGSGLITSIFS | not soluble
14 | GMATNSSTEQSLTKKVWNLATTLAGQGIGFTDYITQLTYLLFLKMDAENVEMFGEESAIPTGYQWADLIAFDGLDLVKQYEETLKLLSELDNLIGTIYTKAQNKIDKPVYLKKVITMIDEEQWLIMDGDVKGAIYESILEKNGQDKKSGAGQYFTPRPLIQAMVDCINPQMGETVCDPACGTGGFLLTAYDYMKGQSASKEKRDFLRDKALHGVDNTPLVVTLASMNLYLHGIGTDRSPIVCEDSLEKEPSTLVDVILANPPFGTRPAGSVDINRPDFYVETKNNQLNFLQHMMLMLKTGGRAAVVLPDNVLFEAGAGETIRKRLLQDFNLHTILRLPTGIFYAQGVKANVLFFSKGQPTKEIWFYDYRTDIKHTLATNKLERHHLDDFVSCYNNRVEIYDAENNPQGRWRKYPVDEIIARDKTSLDITWIKPGGEVDDRSLAEL | soluble
15 | MAHHHHHHMEAAAERCFQEGDLKGAACLYANLMVLYPQYTKMARMCRVLSNPLDVPLPYRYADVVEALLDPCVTYQTLFGTDAPPSVVRKAFQGWTLLVHPDKNPYPKAADAFNRLVAFKAAAMGTVDEGPPNAGGVNSKSSCRGNVRNRQRCTKRHGSANRANQSNQHSQLGDEIDMSLYELKKVQVTLKSLKRKNVDDSELPPLSAFLRPGGGARSRGGVDHSNNTKGSVPTPETQEGGSASLDESIPTSPRSCTADTACEPGLSQTIEAQLRSSEGATDAPYVLSELTPQQNEVVRGGKGLEGENTEEPLGLPTAGGHMQQYATNRNVGEVDNGSRVSLEADDSVQGPAKGIQNPDALPRRRGKHVDRLEGTCTGEFTQQSNQNSTCDTSSSEGLHSTTFNEDVPLVELAKLGIRELFDGIQKKINRDPIRLNCDLSFATYTRDKQKEVNEASVQSNDET | not soluble
16 | MGSDKIHHHHHHMILAAKNSVFVHIRRGDYVGIGCQLGIDYQKKALEYMAKRVPNMELFVFCEDLEFTQNLDLGYPFMDMTTRDKEEEAYWDMLLMQSCQHGIIANSTYSWWAAYLIENPEKIIIGPKHWLFGHENILCKEWVKIESHFEVKSQKYNA | not soluble
17 | MSYLAKFTSPNQMKKLIKTVVADLLGSDEDLKTSSCHVISNLAANSQEMLKGYTSQIVPYVLLEKCREVPKEDEIAREKQEKWNDVWAELVPTTSSAVRLYKEEILNLAIDLVTNNEVWAVRKQAAVMIRVTFENLKKDAGIDVAKKSALSLRDTLNGRIWDGKIEILRALTSAFEAGGADFKRNMSATEIEDMETVLRREASKKNMEYAGAGLATIATWAVISESVESATWLAKKIDENVTKLIGARNDADSDDNMDGLSNLEKEIRASKLVTLNLTALAISLPAFNNAEEAESTLSQIAGYVKSTVIAWKSKQFFFNELAKSLEKWTPREPVAAGKLIDNILEQADELCAQQKKTVATDALQVVLRIQERSDRFGVDRNSVLDSVNRGVAGSETGLGSRFEAKMDTD | not soluble
18 | MKLPVMSPEHSAQLQAFEAKILSNHAKIEAWFRTQWSVHRPPFYGSVDIRNAGYKISSIDMNLFPGGFNNLNPNFIPLAAVAAQDAVQRACETAKSVLIIPENHTRNTFYLQNVYALGEILRSAGYEVRLGSLNPEVTEPTEFETALGDKILLEPLLRTRDRVHLADGFSPCVVLLNNDLSAGIPDILKGISQTVLPPLHGGWTTRRKTNHFGAYNQVTAEFAKLIGIDEWQINPYFEKIGGLDFQGREGEDALAEAVERVLAKIQAKYDESGITDKPFVIVKADAGTYGMGVMSVKSADEVRGLNRKNRNKMAKVKEGLEVSEVIVQEGIYTYETLNGAVCEPVVYMMDRFVIGGFFRVHEGRGADENLNAGGMVFVPLSNSIPTGNGDNSQEAPEACKRVFEQWDSLGMPRSEKDCDVDNEHNRLYVYGVMARLSLLAASIELEETA | soluble
19 | MNEKQKLESGQVHPSDKKSEKDYSKYFEAVYIPPSLKDAKKRGKEAVTYHNDFKISEQFKGLGDGRKFYIRTYGCQMNEHDTEVMAGIFMALGYEATNSVDDANVILLNTCAIRENAENKVFGELGHLKALKKNNPDLILGVCGCMSQEESVVNRILKKHPFVDMIFGTHNIHRLPELLSEAYLSKEMVVEVWSKEGDVIENLPKVRNGKIKGWVNIMYGCDKFCTYCIVPYTRGKERSRRPEDIIQEVRRLASEGYKEITLLGQNVNAYGKDFEDMTYGLGDLMDELRKIDIPRIRFTTSHPRDFDDRLIEVLAKGGNLLDHIHLPVQSGSSEVLKLMARKYDRERYMELVRKIKEAMPNASLTTDIIVGFPNETDEQFEETLSLYREVEFDSAYTFIYSPREGTPAAKMKDNVPMRVKKERLQRLNALVNEISAKKMKEYEGKVVEVLVEGESKNNPDILAGYTEKSKLVNFKGPKEAIGKIVRVKIQQAKTWSLDGEMVGEAIEVKLEHHHHHH | soluble
